The test system of one assay is Hepa 1-6 cells. The experiment in a line: Fas-induced apoptosis in Hepa 1-6 cells (LDH activity assay). The conditions noted are these: for FasL induced apoptosis: serum deprived Hepa 1-6 cells, crosslinked mouse Fas ligand 1 μg/ml overnight, LDH. Format: cell-based, mouse. As to the method: For FIG. 4a, Jurkat cells (1.5×10^5) were overnight treated in triplicate with 5 ng/ml of crosslinked human Fas ligand with or without 5 μg/ml of recombinant AlphaMet or 1 μg/ml of the indicated polypeptides. Percent apoptosis was determined by Trypan Blue staining using a hemocytometer. The data are representative and were repeated at least four times. […] The 17 kDa fragment of cleaved Caspase 3 is visualized by this antibody. The blot was reprobed for β-actin as a loading control. For FIG. 4c, serum deprived Hepa 1-6 cells (3×10^5) were overnight treated with 1 μg/ml of crosslinked mouse Fas ligand with or without AlphaMet or the indicated polypeptide. Media were collected and centrifuged to pellet the dead cells. […] The data in FIG. 4c represents three independent experiments.
Apoptosis assay. Pre-washed Jurkat cells in RPMI 1640 medium containing 1% FBS were inoculated in 96-wells at a density of 10^5 cells per well. Apoptosis was induced by cross-linked human Fas-ligand (R&D Systems) at a concentration of 0.5 ng/ml or Anti-Fas (human, activating) clone CH11 (Upstate biotechnology) at a concentration of 500 ng /ml. Hepa 1-6 cells were overnight starved before induction of apoptosis. The apoptosis in Hepa 1-6 was induced by anti-mouse Fas antibody Jo2 (200 ng/ml) or human recombinant Fas-ligand. The extent of cell viability and apoptosis was determined by several methods such as Trypan Blue stain, flow cytometry, LDH assay, and Hoechst staining.

Assay [1] deals with liver (hepatocyte apoptosis). Kind of assay: Jo2 (Fas agonist) induced liver apoptosis in Balb/c mice. Type of assay: in vivo. The conditions noted are these: for percentage of apoptotic cells by TUNEL staining: Balb/c mice liver, Jo2, AlphaMet 100 micrograms or YLGA polypeptides 300 micrograms per mouse; for enzymatic activity of caspase-3 in liver lysates: compared to Jo2 only group. On the procedure: For FIG. 5a, Balb/c mice (10 per group) were injected with Jo2 (2.5 μg/g of mouse body weight) in the presence of AlphaMet or polypeptides as indicated, and analyzed for the extent of hepatocyte apoptosis and liver damage by immunohisological and biochemical techniques. The percentage of TUNEL positive was determined in multiple liver lobes of each liver in random fields counting at least 500 hepatocytes in a double-blind manner. Frame A: Normal mouse liver; Frame B: Jo2 treated mouse liver; Frame C: Jo2 plus AlphaMet treated mouse; Frame D: Jo2 plus YLGA 12 mer; Frame E: Jo2 and YLGA tetramer treatment; Frame F: Jo2 and YLGA mutated AlphaMet, respectively. These studies were repeated three times with identical outcome. FIG. 5b graphically presents the quantification of hepatocyte apoptosis TUNEL positive nuclei. The data were analyzed by One-way ANOVA and P<0.05 was considered significant. For FIG. 5c, an equal amount of livers were subjected to Caspase 3 activity assay using DEVD-AFC as a substrate and DEVD-CHO as an inhibitor, as recommended by the manufacturer. The data are the mean and SE and were repeated in three independent experiments. The data were analyzed by One-way ANOVA and P<0.05 was considered significant.
Animal studies. Male Balb/c mice weighing 30 grams were purchased from Jackson Laboratory and used according to an IACUC approved protocol. Induction of liver apoptosis and determination of Caspase 3 activity and histological evaluation were performed as described previously (Wang et al., 2002). Animals (10 per group) were anesthetized by isoflurane and injected with Jo2 (Pharmingen 2.5 microgram/gram body weight) with or without AlphaMet (100 micrograms recombinant AlphaMet or 300 micrograms of synthetic YLGA polypeptides) in a total of 100 micro liters of saline per mouse. Control groups (N=10 per group) consisted of saline only, Jo2 only, and Jo2 plus mutated AlphaMet or scrambled polypeptide. During the experiment which lasted approximately 6 hours, animals were closely monitored every 10 to 15 minutes and if they appeared to be moribund were immediately sacrificed and liver tissue and was removed for biochemical and histological studies.
It is well known in the literature that the liver is one of the most sensitive organs to Fas mediated apoptosis. Injection of the Fas agonist Jo2 antibody, which causes mice to experience Fas aggregation resulting in massive hepatocyte apoptosis, fulminant hepatic failure, and death within hours. This model was used to test if AlphaMet and the YLGA polypeptides could protect livers from Fas-induced apoptosis. Given the fact that AlphaMet blocked Fas trimerization and Fas micro-aggregation, and the fact that Fas oligomerization is essential in Fas signaling, it was reasonable to suspect that AlphaMet could block the Fas mediated apoptosis in vivo. Balb/c mice were used in these experiments. Groups of animals (n=10) were injected systemically with Jo2 ([…] of body weight) with or without purified recombinant AlphaMet, synthetic 12 mer YLGA polypeptide (HHIYLGATNYIY, SEQ ID NO:26), or their control counterparts (N-terminally truncated AlphaMet, YLGA mutated recombinant AlphaMet or scrambled 12 mer polypeptide) as described in the materials and methods. Mice were sacrificed within 6 hours or sooner if they were moribund and their livers were subjected to biochemical determination of Caspase-3 activity and histological analyses (i.e. TUNEL staining).

Take HHIYLGATNYIY [12 mer]: the FasL induced apoptosis entry with Hepa 1-6 cells is “significantly inhibited FasL induced apoptosis”. In assay [1], the “percentage of apoptotic cells by TUNEL staining” value (“percentage of apoptotic cells” below) was determined as 25%. Besides, the “enzymatic activity of caspase-3 in liver lysates” value in assay [1] (Balb/c mice) is reported as “significant reduction”.

In the case of YLGA [YLGA 4 mer], the FasL induced apoptosis entry in the assay on Hepa 1-6 cells is reported as “significantly inhibited FasL induced apoptosis”. Moreover, the “percentage of apoptotic cells” value in assay [1] stood at 40%.

B1: alpha subunit of Met (AlphaMet), amino acid residues 1 to 306, His-tagged (receptor, mouse)
chain: MKAPTVLAPGILVLLLSLVQRSHGECKEALVKSEMNVNMKYQLPNFTAETPIQNVVLHGHHIYLGATNYIYVLNDKDLQKVSEFKTGPVLEHPDCLPCRDCSSKANSSGGVWKDNINMALLVDTYYDDQLISCGSVNRGTCQRHVLPPDNSADIQSEVHCMFSPEEESGQCPDCVVSALGAKVLLSEKDRFINFFVGNTINSSYPPGYSLHSISVRRLKETQDGFKFLTDQSYIDVLPEFLDSYPIKYIHAFESNHFIYFLTVQKETLDAQTFHTRIIRFCSVDSGLHSYMEMPLECILTEKRRKRHHHHHH
Regarding B1, the “apoptosis induced by the Fas agonist Jo2” value with Hepa 1-6 cells (Hepa 1-6 cells) was “efficiently inhibited”. Further, the “resistance to Fas killing of stable cell lines expressing the protein” value with Hepa 1-6 cells (Hepa 1-6 stable lines versus control vector clones) is “dramatic resistance to Fas killing”. The FasL induced apoptosis result in the assay on Hepa 1-6 cells is recorded as “significantly inhibited FasL induced apoptosis”. Further, the “percentage of apoptotic cells” value in assay [1] was 18%. The “liver hemorrhage (gross and microscopic)” value in assay [1] (Balb/c mice, Jo2 injection, within 6 hours) is reported as “little or no sign of hemorrhage”. The “enzymatic activity of caspase-3 in liver lysates” value in assay [1] (Balb/c mice) is listed as “significant reduction”.

The values are drawn from US20070184522A1, “Cell death modulation via antagonists of Fasl and Fas activation” (University of Pittsburgh of the Commonwealth System of …, priority 2004, published 2007).
